Source: patent publication US20120276611A1 (GRIFOLS THERAPEUTICS, published 2012)
One block for each binder: values may come before it.

How the values were obtained:
α2-antiplasmin [1] = biological target: T1, α2-antiplasmin (UniProt P08697 40-491, limits assumed); assay: enzyme mixed with α2-antiplasmin, residual S-2251 activity at time points (Wiman and Collen); 22° C., PBS pH 7.4
T1 construct: also called α2-AP
T1 sequence (looked up): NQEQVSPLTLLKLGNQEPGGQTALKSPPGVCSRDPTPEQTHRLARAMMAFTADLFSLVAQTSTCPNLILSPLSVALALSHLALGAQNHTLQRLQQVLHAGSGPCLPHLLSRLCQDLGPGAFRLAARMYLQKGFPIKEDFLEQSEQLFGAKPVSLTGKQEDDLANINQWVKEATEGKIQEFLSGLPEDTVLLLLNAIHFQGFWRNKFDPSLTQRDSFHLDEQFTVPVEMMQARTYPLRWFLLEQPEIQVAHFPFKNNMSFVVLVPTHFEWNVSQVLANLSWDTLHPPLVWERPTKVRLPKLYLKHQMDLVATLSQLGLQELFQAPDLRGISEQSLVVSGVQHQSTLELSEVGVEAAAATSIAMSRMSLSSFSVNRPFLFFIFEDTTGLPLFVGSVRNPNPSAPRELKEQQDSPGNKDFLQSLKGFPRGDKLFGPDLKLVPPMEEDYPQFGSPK
Procedure: TABLE 3 Inhibition rates for various plasmin species and inhibitors were determined at 22° C. in PBS buffer, pH 7.4.

α2-antiplasmin [2] = biological target: T1, α2-antiplasmin; assay: inhibition rates by α2-antiplasmin compared (residual S-2251 activity)

inhibition rate (second-order rate constant) (α2-antiplasmin [1]): 180000 M⁻¹ s⁻¹
B1: micro-plasmin (enzyme, UniProt P00747 562-810, looked up)
chain: APSFDCGKPQVEPKKCPGRVVGGCVAHPHSWPWQVSLRTRFGMHFCGGTLISPEWVLTAAHCLEKSPRPSSYKVILGAHQEVNLEPHVQEIEVSRLFLEPTRKDIALLKLSSPAVITDKVIPACLPSPNYVVADRTECFITGWGETQGTFGAGLLKEAQLPVIENKVCNRYEFLNGRVQSTELCAGHLAGGTDSCQGDSGGPLVCFEKDKYILQGVTSWGLGCARPNKPGVYVRVSRFVTWIEGVMRNN
notes: domain: serine protease domain; also called micro-plasmin (lacking all five kringles)

inhibition rate (second-order rate constant) (α2-antiplasmin [1]): 240000 M⁻¹ s⁻¹
B2: mini-plasmin (enzyme)
chain: VAPPPVVLLPDVETPSEEDCMFGNGKGYRGKRATTVTGTPCQDWAAQEPHRHSIFTPETNPRAGLEKNYCRNPDGDVGGPWCYTTNPRKLYDYCDVPQCAAPSFDCGKPQVEPKKCPGRVVGGCVAHPHSWPWQVSLRTRFGMHFCGGTLISPEWVLTAAHCLEKSPRPSSYKVILGAHQEVNLEPHVQEIEVSRLFLEPTRKDIALLKLSSPAVITDKVIPACLPSPNYVVADRTECFITGWGETQGTFGAGLLKEAQLPVIENKVCNRYEFLNGRVQSTELCAGHLAGGTDSCQGDSGGPLVCFEKDKYILQGVTSWGLGCARPNKPGVYVRVSRFVTWIEGVMRNN
notes: also called mini-plasmin (K5-SP)

fold faster inhibition than micro-plasmin or mini-plasmin (α2-antiplasmin [2]): 40 fold
inhibition rate (second-order rate constant) (α2-antiplasmin [1]): 1.8e+07 M⁻¹ s⁻¹
B3: (TAL6003)-plasmin (enzyme)
chain: MRDVVLFEKKVYLSECKTGNGKNYRGTMSKTKNGITCQKWSSTSPHRPRFSPATHPSEGLEENYCRNPDNDPQGPWCYTTDPEKRYDYCDVPQCAAPSFDCGKPQVEPKKCPGRVVGGCVAHPHSWPWQVSLRTRFGMHFCGGTLISPEWVLTAAHCLEKSPRPSSYKVILGAHQEVNLEPHVQEIEVSRLFLEPTRKDIALLKLSSPAVITDKVIPACLPSPNYVVADRTECFITGWGETQGTFGAGLLKEAQLPVIENKVCNRYEFLNGRVQSTELCAGHLAGGTDSCQGDSGGPLVCFEKDKYILQGVTSWGLGCARPNKPGVYVRVSRFVTWIEGVMRNN
notes: also called recombinant (TAL6003)-plasmin
